Experimental data taken from US20120003149A1.

How the values were obtained:
[1] = molecular target: full-length human GPR87 with an N-terminal FLAG tag, stably expressed on CHO cells (human); assay: flow cytometry, hGPR87 stable expression CHO cell line, antibody at 0.01 µg/mL (no primary antibody: 18.36)
[2] = molecular target: human GPR87 (G protein-coupled receptor 87), endogenously expressed in Me180 cells (human); assay: flow cytometry, Me180 cells transfected with control siRNA, antibody at 0.1 µg/mL (no primary antibody: 10.71)
[3] = molecular target: human GPR87 (G protein-coupled receptor 87), endogenously expressed in Me180 cells (human); assay: flow cytometry, Me180 cells transfected with control siRNA, antibody at 10 µg/mL (no primary antibody: 10.71)
[4] = molecular target: human GPR87 (G protein-coupled receptor 87), endogenously expressed in Me180 cells (human); assay: flow cytometry, Me180 cells transfected with siRNA against GPR87 (expression suppressed to 5.9% at the RNA level), antibody at 0.1 µg/mL (no primary antibody: 10.16)
[5] = molecular target: human GPR87 (G protein-coupled receptor 87), endogenously expressed in Me180 cells (human); assay: flow cytometry, Me180 cells transfected with siRNA against GPR87 (expression suppressed to 5.9% at the RNA level), antibody at 10 µg/mL (no primary antibody: 10.16)
[6] = molecular target: full-length human GPR87 with an N-terminal FLAG tag, stably expressed on CHO cells (human); assay: flow cytometry, hGPR87 stable expression CHO cell line, antibody at 10 µg/mL (no primary antibody: 18.36)
[7] = molecular target: full-length human GPR87 with an N-terminal FLAG tag, stably expressed on CHO cells (human); assay: flow cytometry, hGPR87 stable expression CHO cell line, antibody at 1 µg/mL (no primary antibody: 18.36)
[8] = molecular target: human GPR87 (G protein-coupled receptor 87), endogenously expressed in Me180 cells (human); assay: flow cytometry, Me180 cells transfected with control siRNA, antibody at 1 µg/mL (no primary antibody: 10.71)
[9] = molecular target: human GPR87 (G protein-coupled receptor 87), endogenously expressed in Me180 cells (human); assay: flow cytometry, Me180 cells transfected with siRNA against GPR87 (expression suppressed to 5.9% at the RNA level), antibody at 1 µg/mL (no primary antibody: 10.16)
[10] = molecular target: full-length human GPR87 with an N-terminal FLAG tag, stably expressed on CHO cells (human); assay: flow cytometry, hGPR87 stable expression CHO cell line, antibody at 0.1 µg/mL (no primary antibody: 18.36)

full-length human GPR87 with an N-terminal FLAG tag, stably expressed on CHO cells (human), sequence (chain, as listed by the source): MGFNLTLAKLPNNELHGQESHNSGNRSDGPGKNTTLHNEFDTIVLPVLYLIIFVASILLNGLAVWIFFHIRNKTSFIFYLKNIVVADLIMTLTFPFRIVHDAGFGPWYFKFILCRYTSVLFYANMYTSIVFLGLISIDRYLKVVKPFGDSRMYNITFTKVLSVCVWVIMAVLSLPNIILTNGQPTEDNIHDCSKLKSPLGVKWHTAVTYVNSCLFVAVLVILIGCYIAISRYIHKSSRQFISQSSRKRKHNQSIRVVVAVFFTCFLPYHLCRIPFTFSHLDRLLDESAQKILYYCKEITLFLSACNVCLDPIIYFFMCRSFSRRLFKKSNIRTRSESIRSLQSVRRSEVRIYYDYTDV
human GPR87 (G protein-coupled receptor 87), endogenously expressed in Me180 cells (human), sequence (chain, as listed by the source): as above

Row | Binder | geometric mean of the fluorescence intensity [1] | geometric mean of the fluorescence intensity [2] | geometric mean of the fluorescence intensity [3] | geometric mean of the fluorescence intensity [4] | geometric mean of the fluorescence intensity [5] | geometric mean of the fluorescence intensity [6] | geometric mean of the fluorescence intensity [7] | geometric mean of the fluorescence intensity [8] | geometric mean of the fluorescence intensity [9] | geometric mean of the fluorescence intensity [10]
1 | C0804 antibody (antibody, V domains shown) VH: QIQLVQSGPELKKPGETVKISCKVSGYTFTDYSMHWVKQAPGKGLKWMAWINTETGKPTYADDFKGRFAFSLEASASTAYLQINNLKNEDTATYFCASLDYWGQGTTLTVSS VL: DVLMTQTPLSLPVSLGDQASISCRSSQNVVHSSGNTYLEWFLQKPGQSPKLLIYKVSTRFSGVPDRFSGSGSGTDFTLKISRVEAEDLGVYYCFQGSHVPYTFGGGTKLEIKR | 28.9 | 12.9 | 63.5 | 10.3 | 20.6 | 1240 | 578 | 24.6 | 12.9 | 110
2 | C0815 antibody (antibody, V domains shown) VH: QIQLVQSGPELKNPGETVKISCKVSGYTFTDYSMHWVKQAPGKGLKWMAWINTETGKPTYADDFKGRFAFSLETSASTAYLQINTLKNEDTATYFCASLDYWGQGTTLTVSS VL: DVLMTQTPLSLPVSLGDQASISCRSSQNVVHSSGNTYLEWFLQKPGQSPKLLIYKVSNRFSGVPDRFSGSGSGTDFTLKISRVEAEDLGVYYCFQGSHVPYTFGGGTKLEIKR | 26.9 | 13.3 | 60.5 | 10.1 | 22.4 | 1290 | 496 | 28.8 | 13.6 | 91.6
